The text below walks through data of patent US20070275049A1.

The target in assay [1] is EGFR-derived peptide(s) on MHC class I (H-2Kb/H-2Db) of EGFR-positive LL/2c tumor cells (mouse).
The target of assay [2] is EGFR-derived peptide(s) on MHC class I of EGFR-positive MA782/5S tumor cells (mouse).

Regarding “spleen T cells of mice immunized by chEGFR molecular vaccine (cells without a defined receptor)”, the results for the specific cytocidal activity, standard Cr51 test, at the ratio of 40:1 in assay [1] and in assay [2] were 40.3% and 42.8%, respectively.
